The record followed here is patent publication US20240270814A1 (published 2024).

What all share (test): activation reporter or marker
Test [1] deals with T1, p53 wild type (Y220) peptide on HLA-DRB1*04:01 (human).
T1 peptide: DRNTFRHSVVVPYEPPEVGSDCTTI

For test [2], the target named is T2, p53 Y220C peptide on HLA-DRB1*04:01 (human).
T2 peptide: RNTFRHSVVVPCE

Test [3] has as its target T3, p53 R248W peptide on HLA-A*68:01 (human).
T3 peptide: SSCMGGMNWR

B1: 4259-F6-TCR (TCR, V domains shown)
Valpha: QKEVEQNSGPLSVPEGAIASLNCTYSDRGSQSFFWYRQYSGKSPELIMFIYSNGDKEDGRFTAQLNKASQYVSLLIRDSQPSDSATYLCAWNSGGSNYKLTFGKGTLLTVNP
Vbeta: NAGVTQTPKFRVLKTGQSMTLLCAQDMNHEYMYWYRQDPGMGLRLIHYSVGEGTTAKGEVPDGYNVSRLKKQNFLLGLESAAPSQTSVYFCASSYSQAWGQPQHFGDGTRLSIL
Turning to B1, the figures for the binding result in test [1] and in test [2] were “no recognition” and “recognises”, respectively.

B2: 4266-TCR3 (TCR, V domains shown)
Valpha: GQNIDQPTEMTATEGAIVQINCTYQTSGFNGLFWYQQHAGEAPTFLSYNVLDGLEEKGRFSSFLSRSKGYSYLLLKELQMKDSASYLCAFYYGGSQGNLIFGKGTKLSVKP
Vbeta: GAGVSQSPRYKVAKRGQDVALRCDPISGHVSLFWYQQALGQGPEFLTYFQNEAQLDKSGLPSDRFFAERPEGSVSTLKIQRTQQEDSAVYLCASSFGSGSTDTQYFGPGTRLTVL
Regarding B2, the binding result in test [3] was “recognises”.

B3: 4266-TCR2 (TCR, V domains shown)
Valpha: GQNIDQPTEMTATEGAIVQINCTYQTSGFNGLFWYQQHAGEAPTFLSYNVLDGLEEKGRFSSFLSRSKGYSYLLLKELQMKDSASYLCAVYTGGFKTIFGAGTRLFVKA
Vbeta: EAGVAQSPRYKIIEKRQSVAFWCNPISGHATLYWYQQILGQGPKLLIQFQNNGVVDDSQLPKDRFSAERLKGVDSTLKIQPAKLEDSAVYLCASNLGGGSTDTQYFGPGTRLTVL
Regarding B3, in test [3], the binding result was “recognises”.

B4: 4266-TCR4 (TCR, V domains shown)
Valpha: GQNIDQPTEMTATEGAIVQINCTYQTSGFNGLFWYQQHAGEAPTFLSYNVLDGLEEKGRFSSFLSRSKGYSYLLLKELQMKDSASYLCAVYPGGSQGNLIFGKGTKLSVKP
Vbeta: EAGVAQSPRYKIIEKRQSVAFWCNPISGHATLYWYQQILGQGPKLLIQFQNNGVVDDSQLPKDRFSAERLKGVDSTLKIQPAKLEDSAVYLCASSLGTGSTDTQYFGPGTRLTVL
For the molecule B4, in test [3], the binding result is “recognises”.
